Measured values: PMC10602183 (Research Square, 2023)

Columns and labels:
[1] = molecular target: T1, HIV-1 SF162 Env on infected CD4+ T cells (HIV-1 isolate SF162, UniProt P19550, strain); test: flow cytometry on cells; primary human CD4+ T cells infected with HIV SF162 for 3 days, stained with HmAb64 (2 ug), goat anti-human-PE; uninfected cells as control; conditions: one partner purified
T1 construct: Env as the target follows from the antibody's specificity; also called HIV-1 on cell surface; SF162 infected CD4+ T cells; source: primary human CD4+ T cells infected with HIV SF162, on cells

[2] = molecular target: T2, wild type gp120 Env protein of HIV-1 YU2 (HIV-1 isolate YU2, UniProt P35961); test: ELISA; mAb64 against gp120, gp120-Core or their D368R mutant protein, as previously described; conditions: both partners purified
T2 construct: gp120 subunit of Env (cut product of gp160) of HIV-1 isolate YU2; The ELISA methods name gp120 and gp120-Core proteins; also called YU2 gp120

[3] = molecular target: T3, wild type gp120 Env protein of HIV-1 JR-FL (HIV-1 isolate JR-FL, UniProt Q75760, strain); test: as above; conditions: both partners purified
T3 construct: gp120 subunit of Env (cut product of gp160) of HIV-1 isolate JR-FL; The ELISA methods name gp120 and gp120-Core proteins; also called JR-FL gp120

[4] = molecular target: T4, gp120 derived from HIV-1 SF162, biotinylated (HIV-1 isolate SF162, UniProt P19550, strain, biotin (Lynx biotinylation kit)); test: flow cytometry on cells; HmAb64 blocking the staining of primary human CD4+ T cells by biotinylated gp120 (antibody and gp120 both purified proteins in solution); conditions: both partners purified
T4 construct: gp120 subunit of Env (cut product of gp160) of HIV-1 isolate SF162; also called SF162 gp120

[5] = molecular target: T5, A244 gp120 (HIV-1 isolate A244); test: SPR; Biacore 3000, CM4 or CM5 chips; gp120 or BG505-SOSIP amine-coupled to about 750 RU; HBS pH 7.4, 3 mM EDTA, 0.005% Tween-20, 0.05% carboxymethyl-dextran; 25 ul/min, 25 °C; conditions: both partners purified
T5 construct: gp120 subunit of Env (cut product of gp160) of HIV-1 isolate A244; also called gp120 protein from A244 viral isolate

Measured: binding result

B1: HmAb64 (antibody, V domains shown)
VH: QVQLVQSGAEVKKPGASVKVSCKASGYTFTSYDITWVRQAPGQGLEWMGWISAYNGDTNYAQRLQGRVTMTTDTSTSTAYMELRSLRSDDTAVYYCARAKHTVLVTAMRWFDPWGQGTLVTVSS
VL: DIQMTQSPSSLSASVGDRVTITCRASQSISNYLNWYQQKPGKAPKLLISATSSLQSGVPSRFSGSGSGTDFTLTISSLQPDDFATYYCQQSYSTPWTFGQGTKLEIK
notes: germline IGHV1-18*01, CDR H3 of 15 aa (Kabat); full-length human IgG heavy chain cloned from clone #64; germline IGKV1-39*01, CDR L3 of 9 aa (Kabat); kappa chain cloned from clone #64; Human IgG, kappa; also called clone #64; human IgG (HmAb64)
binds: all assays above
